In publication PMC10873206:

Target: UBE2R1 E108A (human) (UniProt P49427)
Sequence (P49427 whole entry E108A): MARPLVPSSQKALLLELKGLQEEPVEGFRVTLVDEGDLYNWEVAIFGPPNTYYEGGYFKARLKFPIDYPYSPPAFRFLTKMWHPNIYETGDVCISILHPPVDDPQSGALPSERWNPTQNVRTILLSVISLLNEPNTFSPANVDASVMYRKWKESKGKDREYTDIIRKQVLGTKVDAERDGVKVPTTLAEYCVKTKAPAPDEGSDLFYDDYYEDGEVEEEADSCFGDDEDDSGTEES

Substance: D77 acceptor ubiquitin R54D (from UniProt P0CG48 1-76) (natural protein)
- Km of unanchored D77 acceptor ubiquitin for UBE2R1 in di-ubiquitin synthesis (K48R donor ubiquitin, neddylated CUL2–RBX1 WT); saturation not reached, top concentration given: > 800 µM
